{
  "source": "the DeepSol protein solubility set",
  "data": [
    {"assay": "soluble on expression in E. coli; label from the status in PepcDB or PDB records", "values": [
      {"sequence": "MYNLKNIYASITLYPHEINLVVSDNNNQFHVLYENSIANDELYTHAGITNKAKFKVVLNQLINNANDYLGFKLEKVIVVLAELVDDLEINRFKTDVFFTGYDFNHQDMLSSEKNRFLLKNRHINPNEVLDLVALNYRDLTTDKISKNFKYNCSYRANVIYYTTKNSLVKELKPFLKRNIIVKIDKIVTHHMVLAHSIKQINKNNLFVYLGEHTTDLMLFMDNALVDLVSEPFGRVNFLESDNDSENKALLEFLVDSTARIGDSGSIGMAYTDGSTYKEIRAVTIDDLIQSVNEKTKYLIDFINTNTEIFFQKYGFLPSTLLFYTKSKQLLNNFQLNQNLLSNHFKTVTIFKNEVQFVSRKYLLNCQTIALSWRQDQINVNPTSFALPFYSDKIEKQFKKSFLMLKVHTHINKLVQKLIK", "soluble on expression in E. coli": "soluble"},
      {"sequence": "MYNVMITGAGKIGSLIACLLADSGSYQVHLADLEFNGSDVTRLLTALPEIKTVALDVKDEQSTQAYLQKHNIIAVISSLPYFLNTHVAKAAKAAKAHYFDLTEDTSVTEAVKAIAQNAETAFVPQCGLAPGFISIAANSLMQEFEKCHHARLRVGALPQRANNALHYSLTWSTDG", "soluble on expression in E. coli": "not soluble"},
      {"sequence": "MYPNLFQPLDLGFTQLKNRVLMGSMHTGLEENKEGLHKLAAFYEERAKGGVGLIVTGGFSPNLRGRLHPFSAEFSKTKHAKAHKVVTEAVHRHGAKIALQLLHAGRYAMHPFSQSASAIRAPIAKFAPSEMSTRQIRNTIQDFANSAELAQLAGYDGVEVMGSEGYLINQFICKRTNMRYDEWGGSYQNRIRFPVEIVKAIREAVGKEFIIIFRLSMLDLVEQGSTFEEVVVLAKALEEAGVTIINTGIGWHEARIPTIATQVPRAAFSWVTEKIKPYLKVPVVTCNRINTPEQAEKILASGQADMVSMARPFLADADFVRKAQEGQSALINTCIGCNQACLDNVFRGKRASCLVNPRACYETEIVVKPAQSKKIAVVGAGPAGLAFATTASERGHQVDLFERNDRIGGQFRLAMQIPGKEEFRETIRYFANRIDQTGVKLHLGCEVQFSDLRGYDEVVIATGVTPRKIALAGLSESSKVVDYQTLIREKTPVGQKVAIVGAGGIGVDVASMLTEPKDQTLDDWLYEWGIDKAIEHPGGLYPYPETTSEREVWLLQRRKGAVGKGPGKTTGWIHKRTLEKRGVHLVGGVQYQKIDEQGLHIERDGKSELIDADSVVICAGQESVRPFEAQWAELGDKLHVIGGADVAGELDAARAIRQGVELAVRL", "soluble on expression in E. coli": "not soluble"},
      {"sequence": "MYQVVKMFGDWEPWWFIEGWEEDITEIAEYDTLSEALLYFQEEWDRGQEKWPYFQSKSSLLATFWSIKEKRWCEECDEYLQQYHSLMLLKEWQEIPKEESIERFEVFNKIAELPSACSLNLLEHHHHHH", "soluble on expression in E. coli": "soluble"},
      {"sequence": "MYRMDKYTIGLIRVITLEDKEILNLHGRIIESAFPELKVVSRCIEDQPKGIYNEETEREAEPKIIRLAKEFEREGVDAIIISCAADPAVEKVRKLLSIPVIGAGSSVSALALAYGRRVGVLNLTEETPKVIRSILGNNLIAEDHPSGVSNTLDLLTDWGRREVINAAKRLKEKGVEVIALGCTGMSTIGIAPVLEEEVGIPVIDPVIASGAVALHALKRREVKRFEGR", "soluble on expression in E. coli": "soluble"},
      {"sequence": "MYTPVSKSTKSNKNRSSLDKILDAKKPVNLLILGTDTGAEGRSVKNYHGLTDLMMFVTVNPSKKQTRVTTIARDSKVNLPDYPEVSPIKLNSAYSLGGVSETIKTLDKYYSVPIDGYVLVNWASTMKIITKMGGVDVISPLTFDNMGYSFKKGQMYHISGKKALAFVQLRHGDPRQDYGRQERERLVMMAAIKKSVSYKTILNSSFMQSLGDSMQTDLSLNDMIKLAMNYQGVTDNVKSDYAQGKSSSVNNLEHHHHHH", "soluble on expression in E. coli": "soluble"},
      {"sequence": "MYTYKIGISPEEHDQFVLAQPQAGLLQSSKWGKVKDNWKHERISFYENGVQVAAAACLIRKLPLGFTMIYIPRGPIMDYANFELLDFVIKTLKTFGKSKRALFIKIDPSLVIKQTLEGKESKENDVTLSIIAFLKKLGVEWSGRTKELEDTIQPRIQANIYAKDFDFDSLPKKAKQSIRTATNKGVNVTIGGSELLDDFSALMKKTENRKGIILRGKSYYQKLLGIYAGQSYITMASLDLPEQKKLLIQQLDKALAEQARLTDKSKPSKVAENQKTIARLQKDLTILSEQLATGQTRIPLAATLTLIYGETSENLYAGMDDDYRNYQAPLLTWYETAKEAFKRGCRWHNLGGVENQQDGGLYHFKARLNPTIEEFAGEFNIPVGLVSSLAILTYNLRKKLRSTTNGTN", "soluble on expression in E. coli": "not soluble"},
      {"sequence": "MYVECLSSTTPPIDVFDYLSFFVFNKKDNKYLSIQDVEVKRFSSSKTVWGLPKAMSLETFTDPAKGFIVEGEPCEFGAHVKIASSPVPVDENLPFHKFSWSIRDFSVLKQNDCISKTFAMGGKNWTLTVYPKGDSEADNEFCKYLHLADGEVLSPGEMISVRAQLRALDPRGSKHKTVWLQQWIMAATKARGIPQSLSLADLQEAYLDEDTLNVEIECEVVNSRKMF", "soluble on expression in E. coli": "soluble"},
      {"sequence": "MYYIASADSQQSQQGRSQAEAPEFLTEKCPFVGLKSTLEQVGTPR", "soluble on expression in E. coli": "not soluble"},
      {"sequence": "NADAQTKLQIIDLKTRLRLALPNLPGGDLRGVNFSADASQLVFYINSDTSPSNLYVHKLGSTGVKRLTNTGNPNILEDNLVEGEVVRFKSFDGLDIPGILYKPKQAEFNKVPALVFIHGGPGGQSRKGYSALVQHLVNNGYAIFKVNNRGSSGYGKTFFHLDDKKHGDHDLKDVVYNKYYLQSLDWVDKDRIGVIGGSYGGYLTMAAMAFTDEFQAGVNIFGVTNWVRTLESIPPYWEAFRKSLYDELGDPNTDKERLHNISPVFFGHQIKKPVLVVQGKNDPRVLKIESDEMVDSIRSGGTYVDYLVFDDEGHGFSKKANRIEASNKYLNFFKTQL", "soluble on expression in E. coli": "not soluble"},
      {"sequence": "NDKYMLLVFGRNGCSYCERFKKDLKNVKELRDYIKEHFSAYYVNISYSKEHDFKVGDKNNEKEIKMSTEELAQIYAVQSTPTIVLSDKTGKTIYELPGYMPSTQFLAVLEFIGDGKYQDTKDDEDLTKKLKAYIKYKTNLSKSKSN", "soluble on expression in E. coli": "not soluble"},
      {"sequence": "NETEATLPVFTLEQVAEHHSPDDCWMAIHGKVYDLTPYVPNHPGPAGMMLVWCGQESTEAWETKSYGEPHSSLAARLLQRYLIGTLEEIT", "soluble on expression in E. coli": "soluble"},
      {"sequence": "NGGTSKTVKFERFEDYNGPKPARAKNMVWQIIPDASTRTNALQSKSVQAIDSVPYLSIDQLKGTHTVESVQGFGLLFAMFNNDKSNPFSDLKNRQAFLYGIDMDKVIKTALLGQATAPTSFLHKEHPQYHEAKVVYSHDAEKAKALFKETGLTKLRMLCTDHDWVKKCTPLIQESLTALGIQVDFTEKKSSDVYNTIDGKPEAYDVVIAPGDPSVFGTDPDLLMRWWYSGDTWTDTRMHWKGTEAYAKLQEVLDAGLAATSESEQKNKWHEALDIISENVPLYPLLHRKAPTAWDASTLVDFKPISLTGLSFSGVGTTQ", "soluble on expression in E. coli": "not soluble"},
      {"sequence": "NKYDWFEFFLNCGVDVSNCQRYTINFDREQLTEDMMPDINNSMLRTLGLREGDIVRVMKHLDKKFGRENIAS", "soluble on expression in E. coli": "soluble"},
      {"sequence": "NLMKRCTRGFRKLGKCTTLEEEKCKTLYPRGQCTCSDSKMNTHSCDCKSC", "soluble on expression in E. coli": "soluble"},
      {"sequence": "NQKDFDRTMVIDERTELVARTITDYLKRTNPMDKTIVFCNDIDHAERMRRALVNLNPEQVKKNDKYVMKITGDDEIGKAQLDNFINPKKPYPVIATTSELMTTGVDAKTCKLVVLDQNIQSMTKFKQIIGRGTRIDERYGKLWFTILDFKKATELFADERFDGIPEKVMDTTPEDIAD", "soluble on expression in E. coli": "not soluble"},
      {"sequence": "NTDELMRAVQPRVNPKLLYVIASTLRLYPLAKARLEIIRQTHITRGIDVHSIRGRWGLVLPLVVGLVDNAAQRARPLQRTGIGHSGPRTVLRPVPVMTHDVIIQVLAVCTTIAVCIWSIF", "soluble on expression in E. coli": "not soluble"},
      {"sequence": "NVPELIGAQAHAVNVILDAETAYPNLIFSDDLKSVRLGNKWERLPDGPQRFDSCIIVLGSPSFLSGRRYWEVEVGDKTAWILGACKTSISRKGNMTLSPENGYWVVIMMKENEYQASSVPPTRLLIKEPPKRVGIFVDYRVGSISFYNVTARSHIYTFASCSFSGPLQPIFSPGTRDGGKNTAPLTICPVG", "soluble on expression in E. coli": "soluble"},
      {"sequence": "NVYDLANELERAVRALPEYQAVLTAKSAIESDADAQVLWQDFLATQSKVQEMMQSGQMPSQEEQDEMSKLGEKIESNDLLKVYFDQQQRLSVYMSDIEKIVFAPMQDL", "soluble on expression in E. coli": "soluble"},
      {"sequence": "PAKLGYWKLRGLAQPVRLFLEYLGEEYEEHLYGRDDREKWMSEKFNMGLDLPNLPYYIDDKCKLTQSVAIMRYIADKHGMLGTTPEERARISMIEGAAMDLRIGFGRVCYNPKFEEVKEEYVKELPKTLKMWSDFLGDRHYLTGSSVSHVDFMLYETLDSIRYLAPHCLDEFPKLKEFKSRIEALPKIKAYMESKRFIKWPLNGWAASFGAGDAPPS", "soluble on expression in E. coli": "soluble"},
      {"sequence": "PDEKIVRIHSSSGTTGSPVIIPYTQKDVDVWSEMMMRCYQMAGVTNNDRVHITPGYGLWTAGIGFQLGAERLGAMAIPMGPGNTEKQLQMMVDLKSTVLTSTSSYALLLAEEIRKKGIQDKIHLKIGVIGSERWSEKMRNRIESELGIKSFDIYGLTEIYGPGIALDCEYHEGMHYW", "soluble on expression in E. coli": "not soluble"},
      {"sequence": "PDGQDLAEARQRLDDSLEQAHQQHKALYERLMAYKTQPRMKTWLNELVWAHNQALWDAPTKVLAQGEPDPHLLLTTQLAPELLNTRKELMLISAYFVPGQEGLLYLTGRADAGVNVSLLTNSLEATDVPAVHGGYAPYRKALLEHGVKLYELRRQPGETETMRSSGPHLFRKSHSLVSSESSLHSKAMIFDRQKVFVGSFNFDPRSVLWNTEVGVLVDSPQLAEELRELTLQGMAPSLTYEARLEDGKVVWVTE", "soluble on expression in E. coli": "soluble"},
      {"sequence": "PGSMTVTQSQLELLIRNAFPEAEITVTSLVGDNNHYSIKVISSQFQGKSKLEQHRMIYKVLDGLNIHAIQIQTGCK", "soluble on expression in E. coli": "soluble"},
      {"sequence": "PHMQPFDSGHDDLVHDVVYDFYGRHVATCSSDQHIKVFKLDKDTSNWELSDSWRAHDSSIVAIDWASPEYGRIIASASYDKTVKLWEEDPDQEECSGRRWNKLCTLNDSKGSLYSVKFAPAHLGLKLACLGNDGILRLYDALEPSDLRSWTLTSEMKVLSIPPANHLQSDFCLSWCPSRFSPEKLAVSALEQAIIYQRGKDGKLHVAAKLPGHKSLIRSISWAPSIGRWYQLIATGCKDGRIRIFKITEKLSPLASEESLTNSNMFDNSADVDMDAQGRSDSNTEEKAELQSNLQVELLSEHDDHNGEVWSVSWNLTGTILSSAGDDGKVRLWKATYSNEFKCMSVITAQQ", "soluble on expression in E. coli": "soluble"},
      {"sequence": "PKLSQDEIDDLKDVFELFAFWDGRDGAVDAFKLGDVCRCLGINPRNEDVFAVGGTHKMGEKSLPFEEFLPAYEGLMDCEQGTFADYMEAFKTFDREGQGFISGAELRHVLTALGERLSDEDVDEIIKLTDLQEDLEGNVKYEDFVKKVMAGPYPDK", "soluble on expression in E. coli": "soluble"},
      {"sequence": "PKPLKNLDGQFCEICGDQIGLTVEGDLFVACNECGFPACRPCYEYERREGTQNCPQCKTRYKRLRGSPRVEGDEDEEDID", "soluble on expression in E. coli": "soluble"},
      {"sequence": "PKYQANTQILVNQTKGDNPQFMAQEVQSNIQLVNTYKEIVKSPRILDEVSKDLNDKYSPSKLSSMLTITNQENTQLINIQVKSGHKQDSEKIANSFAKVTSKQIPKIMSVDNVSILSKADGTAVKVAPKT", "soluble on expression in E. coli": "not soluble"},
      {"sequence": "PMVALVGARNASSLGLRMARKLAAALGEAGYVVVSGLARGIDAEAHAAALGQGTVAVQAGGVDVIYPAENAGLAAEIAARGCRISEQPMGLVPQARHFPLRNRIVSGLARAVVVVEAAARSGSLITAREALDQGREVLAVPGHPFDPRAAGGNQLIREGATLVRHAADVIEAIGTAHPA", "soluble on expression in E. coli": "not soluble"},
      {"sequence": "PNARSQPSKTLFVKGLSEDTTEETLKESFDGSVRARIVTDRETGSSKGFGFVDFNSEEDAKAAKEAMEDGEIDGNKVTLDWAKPKGEGG", "soluble on expression in E. coli": "soluble"}
    ]}
  ]
}
